Earlier results as cited in doi:10.1101/2025.05.26.656075.

Biological target: neonatal Fc receptor (FcRn), biotinylated (UniProt P55899+P61769)
Test: not stated
Conditions: cited from earlier work

| Substance | KD (pH 6.0) | KD (pH low pH (number not given)) | KD (pH neutral pH (number not given)) |
| --- | --- | --- | --- |
| MFc4 (IgG4 monomeric Fc of Shan et al.) L351F;S354E;T366R;P395K;F405R;Y407E;L428M;L432C;H433S;N434Y;Y436L;T437C;delQ438 (as printed) | 5 nM | – | – |
| native dimeric human IgG1 / IgG1 Fc (literature values) | 2,140 nM | 1,377 nM | ∼88,000 nM |
